Source: publication PMC9482650, “Quantitative fragmentomics allow affinity mapping of interactomes” (Nature Communications, 2022)

Key:
Assay in all cases: holdup assay
Design in all cases: key: below the threshold = too weak to quantify, mostly under pKd 3.1 to 4
Conditions in all cases: plain residues with an end cap or a label only (N-terminal biotin on a linker: ttds)
RGS3, P49796-9 = target: RGS3, P49796-9
GRIP2_2, Q9C0E4 = target: GRIP2_2, Q9C0E4
PTPN4, P29074 = target: T1, PTPN4, P29074
T1 sequence (P29074 512-599, limits assumed, looked up): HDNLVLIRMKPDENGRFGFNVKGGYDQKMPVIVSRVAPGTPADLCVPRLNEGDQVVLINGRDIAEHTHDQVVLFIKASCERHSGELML

MAGI1_4, Q96QZ7 = target: MAGI1_4, Q96QZ7
Chain of MAGI1_4, Q96QZ7 (Q96QZ7 other isoform, or with tags, fused parts or gaps): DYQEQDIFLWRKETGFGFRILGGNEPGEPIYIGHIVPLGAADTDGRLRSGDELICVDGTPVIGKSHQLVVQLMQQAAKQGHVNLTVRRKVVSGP

SHROOM2, Q13796 = target: T2, SHROOM2, Q13796
T2 sequence (Q13796 21-118, limits assumed, looked up): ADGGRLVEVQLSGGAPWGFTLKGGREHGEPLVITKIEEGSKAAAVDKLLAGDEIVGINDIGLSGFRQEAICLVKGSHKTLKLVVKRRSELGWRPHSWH

USH1C_2, Q9Y6N9 = target: T3, USH1C_2, Q9Y6N9
T3 sequence (Q9Y6N9 206-303, limits assumed, looked up): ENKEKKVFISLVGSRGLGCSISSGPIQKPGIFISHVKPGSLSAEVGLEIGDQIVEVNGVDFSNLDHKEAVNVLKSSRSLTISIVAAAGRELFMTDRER

NHERF1_2, O14745 = target: T4, NHERF1_2, O14745
T4 sequence (O14745 149-244, limits assumed, looked up): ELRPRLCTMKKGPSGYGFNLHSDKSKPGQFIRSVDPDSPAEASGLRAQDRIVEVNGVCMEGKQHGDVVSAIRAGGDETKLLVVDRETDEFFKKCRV

SHROOM3, Q8TF72 = target: T5, SHROOM3, Q8TF72
T5 sequence (Q8TF72 20-120, limits assumed, looked up): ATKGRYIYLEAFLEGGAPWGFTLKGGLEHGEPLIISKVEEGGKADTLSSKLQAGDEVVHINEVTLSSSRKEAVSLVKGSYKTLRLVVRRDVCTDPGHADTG

PDZD8, Q8NEN9 = target: T6, PDZD8, Q8NEN9
T6 sequence (Q8NEN9 361-459, limits assumed, looked up): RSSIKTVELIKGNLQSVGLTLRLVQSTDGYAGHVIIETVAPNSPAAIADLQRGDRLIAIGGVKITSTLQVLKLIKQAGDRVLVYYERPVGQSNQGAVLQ

MAGIX, Q9H6Y5 = target: MAGIX, Q9H6Y5
Chain of MAGIX, Q9H6Y5 (Q9H6Y5 118-211): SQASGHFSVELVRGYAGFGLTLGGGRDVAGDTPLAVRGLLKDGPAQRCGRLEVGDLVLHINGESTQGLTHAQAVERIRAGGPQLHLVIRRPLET

MAGI1_6, Q96QZ7 = target: MAGI1_6, Q96QZ7
Chain of MAGI1_6, Q96QZ7 (Q96QZ7 1146-1238): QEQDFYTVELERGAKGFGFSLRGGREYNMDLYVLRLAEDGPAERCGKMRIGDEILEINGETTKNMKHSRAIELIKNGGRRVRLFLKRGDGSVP

RGS12, O14924 = target: T7, RGS12, O14924
T7 sequence (O14924 17-108, limits assumed, looked up): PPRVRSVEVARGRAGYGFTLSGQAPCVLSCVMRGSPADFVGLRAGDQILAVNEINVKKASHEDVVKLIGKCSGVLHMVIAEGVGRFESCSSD

TJP3_2, O95049 = target: T8, TJP3_2, O95049
T8 sequence (O95049 190-282, limits assumed, looked up): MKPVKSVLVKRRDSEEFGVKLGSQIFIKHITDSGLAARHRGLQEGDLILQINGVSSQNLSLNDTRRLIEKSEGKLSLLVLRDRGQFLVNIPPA

USH1C_1, Q9Y6N9 = target: T9, USH1C_1, Q9Y6N9
T9 sequence (Q9Y6N9 82-179, limits assumed, looked up): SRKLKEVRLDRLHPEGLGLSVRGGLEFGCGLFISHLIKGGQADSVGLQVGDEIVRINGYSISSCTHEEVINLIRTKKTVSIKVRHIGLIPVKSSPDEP

CNKSR1, Q969H4 = target: T10, CNKSR1, Q969H4
T10 sequence (Q969H4 191-295, limits assumed, looked up): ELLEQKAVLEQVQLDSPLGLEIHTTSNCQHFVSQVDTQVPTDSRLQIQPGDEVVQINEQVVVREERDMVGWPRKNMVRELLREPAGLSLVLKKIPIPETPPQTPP

PDZD2_4, O15018 = target: T11, PDZD2_4, O15018
T11 sequence (O15018 723-823, limits assumed, looked up): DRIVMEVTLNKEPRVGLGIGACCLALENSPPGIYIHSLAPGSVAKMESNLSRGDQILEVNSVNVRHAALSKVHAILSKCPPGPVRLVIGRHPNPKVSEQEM

MAGI2_1, Q86UL8 = target: T12, MAGI2_1, Q86UL8
T12 sequence (Q86UL8 12-111, limits assumed, looked up): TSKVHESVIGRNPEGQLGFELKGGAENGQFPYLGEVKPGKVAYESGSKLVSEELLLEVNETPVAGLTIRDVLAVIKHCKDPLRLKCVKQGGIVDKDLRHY

PDZD9, Q8IXQ8 = target: PDZD9, Q8IXQ8
Chain of PDZD9, Q8IXQ8 (Q8IXQ8 23-120): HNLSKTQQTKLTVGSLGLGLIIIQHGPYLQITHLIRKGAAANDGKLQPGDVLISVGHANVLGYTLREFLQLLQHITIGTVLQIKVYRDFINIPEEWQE

RIMS1, Q86UR5 = target: RIMS1, Q86UR5
Chain of RIMS1, Q86UR5 (Q86UR5 584-692): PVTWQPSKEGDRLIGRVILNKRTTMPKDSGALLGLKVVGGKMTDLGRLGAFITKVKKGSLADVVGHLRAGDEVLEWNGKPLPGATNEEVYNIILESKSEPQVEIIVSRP

MPDZ_7, O75970 = target: T13, MPDZ_7, O75970
T13 sequence (O75970 1146-1253, limits assumed, looked up): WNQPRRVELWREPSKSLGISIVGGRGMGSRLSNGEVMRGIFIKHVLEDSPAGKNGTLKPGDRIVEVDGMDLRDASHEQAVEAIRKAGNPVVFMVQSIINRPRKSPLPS

GIPC1, O14908 = target: T14, GIPC1, O14908
T14 sequence (O14908 128-223, limits assumed, looked up): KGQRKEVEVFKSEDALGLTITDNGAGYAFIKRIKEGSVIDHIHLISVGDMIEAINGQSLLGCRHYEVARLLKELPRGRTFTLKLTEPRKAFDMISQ

TJP3_1, O95049 = target: T15, TJP3_1, O95049
T15 sequence (O95049 6-103, limits assumed, looked up): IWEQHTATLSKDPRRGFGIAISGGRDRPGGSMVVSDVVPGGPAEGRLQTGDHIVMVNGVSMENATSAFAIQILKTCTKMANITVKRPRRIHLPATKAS

Chain of GRIP2_2, Q9C0E4 (Q9C0E4 137-245): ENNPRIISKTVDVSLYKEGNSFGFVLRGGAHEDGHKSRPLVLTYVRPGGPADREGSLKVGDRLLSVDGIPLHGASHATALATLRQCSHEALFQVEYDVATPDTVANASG
Chain of RGS3, P49796-9 (P49796 other isoform, or with tags, fused parts or gaps): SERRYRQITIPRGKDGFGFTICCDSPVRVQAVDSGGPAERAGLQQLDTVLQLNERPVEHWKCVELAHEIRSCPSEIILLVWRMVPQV

Binder: SRSRRRETAL [HPV33-E6, P06427]
- pKd (RGS3, P49796-9): below the threshold
- pKd (GRIP2_2, Q9C0E4): below the threshold
- pKd (PTPN4, P29074): 5.02
- pKd (MAGI1_4, Q96QZ7): below the threshold
- pKd (SHROOM2, Q13796): below the threshold
- pKd (USH1C_2, Q9Y6N9): below the threshold
- pKd (NHERF1_2, O14745): below the threshold
- pKd (SHROOM3, Q8TF72): below the threshold
- pKd (PDZD8, Q8NEN9): below the threshold
- pKd (MAGIX, Q9H6Y5): below the threshold
- pKd (MAGI1_6, Q96QZ7): below the threshold
- pKd (RGS12, O14924): 4.5
- pKd (TJP3_2, O95049): below the threshold
- pKd (USH1C_1, Q9Y6N9): below the threshold
- pKd (CNKSR1, Q969H4): below the threshold
- pKd (PDZD2_4, O15018): below the threshold
- pKd (MAGI2_1, Q86UL8): below the threshold
- pKd (PDZD9, Q8IXQ8): below the threshold
- pKd (RIMS1, Q86UR5): below the threshold
- pKd (MPDZ_7, O75970): below the threshold
- pKd (GIPC1, O14908): below the threshold
- pKd (TJP3_1, O95049): below the threshold

Binder: PPRQRSETQV [HPV82-E6, Q9IR59]
- pKd (RGS3, P49796-9): below the threshold
- pKd (GRIP2_2, Q9C0E4): below the threshold
- pKd (PTPN4, P29074): below the threshold
- pKd (MAGI1_4, Q96QZ7): 4.2
- pKd (SHROOM2, Q13796): below the threshold
- pKd (USH1C_2, Q9Y6N9): below the threshold
- pKd (NHERF1_2, O14745): below the threshold
- pKd (SHROOM3, Q8TF72): below the threshold
- pKd (PDZD8, Q8NEN9): below the threshold
- pKd (MAGIX, Q9H6Y5): below the threshold
- pKd (MAGI1_6, Q96QZ7): 4.21
- pKd (RGS12, O14924): below the threshold
- pKd (TJP3_2, O95049): below the threshold
- pKd (USH1C_1, Q9Y6N9): below the threshold
- pKd (CNKSR1, Q969H4): below the threshold
- pKd (PDZD2_4, O15018): 4.53
- pKd (MAGI2_1, Q86UL8): below the threshold
- pKd (PDZD9, Q8IXQ8): below the threshold
- pKd (RIMS1, Q86UR5): below the threshold
- pKd (MPDZ_7, O75970): below the threshold
- pKd (GIPC1, O14908): 4.27
- pKd (TJP3_1, O95049): below the threshold

Binder: KLVIKTETTV [RASSF6, Q6ZTQ3]
- pKd (RGS3, P49796-9): below the threshold
- pKd (GRIP2_2, Q9C0E4): below the threshold
- pKd (PTPN4, P29074): 4.33
- pKd (MAGI1_4, Q96QZ7): below the threshold
- pKd (SHROOM2, Q13796): below the threshold
- pKd (USH1C_2, Q9Y6N9): below the threshold
- pKd (NHERF1_2, O14745): below the threshold
- pKd (SHROOM3, Q8TF72): below the threshold
- pKd (PDZD8, Q8NEN9): below the threshold
- pKd (MAGIX, Q9H6Y5): below the threshold
- pKd (MAGI1_6, Q96QZ7): below the threshold
- pKd (RGS12, O14924): below the threshold
- pKd (TJP3_2, O95049): below the threshold
- pKd (USH1C_1, Q9Y6N9): below the threshold
- pKd (CNKSR1, Q969H4): below the threshold
- pKd (PDZD2_4, O15018): below the threshold
- pKd (MAGI2_1, Q86UL8): below the threshold
- pKd (PDZD9, Q8IXQ8): below the threshold
- pKd (RIMS1, Q86UR5): below the threshold
- pKd (MPDZ_7, O75970): below the threshold
- pKd (GIPC1, O14908): 4.57
- pKd (TJP3_1, O95049): below the threshold

Binder: SSIDLWETAL [SLC15A5, A6NIM6]
- pKd (RGS3, P49796-9): below the threshold
- pKd (GRIP2_2, Q9C0E4): below the threshold
- pKd (PTPN4, P29074): 4.84
- pKd (MAGI1_4, Q96QZ7): below the threshold
- pKd (SHROOM2, Q13796): 5.76
- pKd (USH1C_2, Q9Y6N9): below the threshold
- pKd (NHERF1_2, O14745): below the threshold
- pKd (SHROOM3, Q8TF72): 4.81
- pKd (PDZD8, Q8NEN9): below the threshold
- pKd (MAGIX, Q9H6Y5): below the threshold
- pKd (MAGI1_6, Q96QZ7): 5.18
- pKd (RGS12, O14924): below the threshold
- pKd (TJP3_2, O95049): below the threshold
- pKd (USH1C_1, Q9Y6N9): 4.64
- pKd (CNKSR1, Q969H4): below the threshold
- pKd (PDZD2_4, O15018): below the threshold
- pKd (MAGI2_1, Q86UL8): below the threshold
- pKd (PDZD9, Q8IXQ8): below the threshold
- pKd (RIMS1, Q86UR5): below the threshold
- pKd (MPDZ_7, O75970): 6.09
- pKd (GIPC1, O14908): below the threshold
- pKd (TJP3_1, O95049): below the threshold

Binder: SHSSKGETAV [FZD7, O75084]
- pKd (RGS3, P49796-9): below the threshold
- pKd (GRIP2_2, Q9C0E4): 4.49
- pKd (PTPN4, P29074): below the threshold
- pKd (MAGI1_4, Q96QZ7): below the threshold
- pKd (SHROOM2, Q13796): below the threshold
- pKd (USH1C_2, Q9Y6N9): below the threshold
- pKd (NHERF1_2, O14745): below the threshold
- pKd (SHROOM3, Q8TF72): below the threshold
- pKd (PDZD8, Q8NEN9): below the threshold
- pKd (MAGIX, Q9H6Y5): below the threshold
- pKd (MAGI1_6, Q96QZ7): 4.7
- pKd (RGS12, O14924): below the threshold
- pKd (TJP3_2, O95049): below the threshold
- pKd (USH1C_1, Q9Y6N9): below the threshold
- pKd (CNKSR1, Q969H4): below the threshold
- pKd (PDZD2_4, O15018): below the threshold
- pKd (MAGI2_1, Q86UL8): 4.39
- pKd (PDZD9, Q8IXQ8): below the threshold
- pKd (RIMS1, Q86UR5): below the threshold
- pKd (MPDZ_7, O75970): below the threshold
- pKd (GIPC1, O14908): 4.44
- pKd (TJP3_1, O95049): below the threshold

Binder: SGGKRKETLV [NET1, Q7Z628]
- pKd (RGS3, P49796-9): below the threshold
- pKd (PTPN4, P29074): 3.51
- pKd (SHROOM2, Q13796): below the threshold
- pKd (NHERF1_2, O14745): below the threshold
- pKd (SHROOM3, Q8TF72): below the threshold
- pKd (PDZD8, Q8NEN9): below the threshold
- pKd (MAGIX, Q9H6Y5): below the threshold
- pKd (MAGI1_6, Q96QZ7): below the threshold
- pKd (RGS12, O14924): below the threshold
- pKd (USH1C_1, Q9Y6N9): below the threshold
- pKd (PDZD2_4, O15018): below the threshold
- pKd (MAGI2_1, Q86UL8): below the threshold
- pKd (PDZD9, Q8IXQ8): below the threshold
- pKd (RIMS1, Q86UR5): below the threshold
- pKd (MPDZ_7, O75970): 4.35
- pKd (GIPC1, O14908): 4.28
- pKd (TJP3_1, O95049): below the threshold
